A word on the Kd: it is the free concentration of one partner at which half of the binding sites on the other are occupied at equilibrium, for simple one-to-one binding. High values mean lower affinity, low ones higher affinity.

Bounds are passed on as bounds.

Our source for the Kd values is patent US5795721.

In this data set the target is T1, FP505 (ICP4 residues 210-490 DNA-binding/dimerization domain fusion) (Herpes simplex virus 1) (UniProt P08392).
T1 sequence: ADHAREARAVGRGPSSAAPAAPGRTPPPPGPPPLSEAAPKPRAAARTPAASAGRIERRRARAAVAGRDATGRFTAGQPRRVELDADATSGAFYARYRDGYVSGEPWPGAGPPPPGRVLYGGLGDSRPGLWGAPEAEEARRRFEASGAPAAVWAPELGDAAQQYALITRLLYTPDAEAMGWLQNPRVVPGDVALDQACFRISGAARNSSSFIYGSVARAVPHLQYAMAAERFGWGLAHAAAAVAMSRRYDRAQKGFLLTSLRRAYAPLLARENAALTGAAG
The data set can be described thus: filter.

Turning to “GGGAGGACAGTGCGGNNNNNNNNNNNNNNNNNNNNNNNNNNNNNNNNNNNNNNNNCAGTGCGTCAGTCAAC [random ssDNA pool]”, where the note is “with tRNA, >11 nM without tRNA”, the Kd is over 160 nM.

“GGGAGACAAGAAUAAACGCUCAANNNNNNNNNNNNNNNNNNNNNNNNNNNNNNNNNNNNNNNNUUCGACAGGAGGCUCACAACAGGC [random RNA pool]” had a Kd (random pool) of over 100 nM.

ICP0 promoter duplex 200mer displayed a Kd (without tRNA, >1 uM with tRNA excess) of 0.5 nM.
